Assay results: patent US20230330251A1, “METHODS FOR TREATING CANCERS WITH ANTIBODY DRUG CONJUGATES (ADC) THAT BIND TO 191P4D12 PROTEINS” (AGENSYS, INC., priority 2020, published 2023)

Tested on: subjects with previously treated locally advanced or metastatic urothelial cancer
Assay: EV-301: safety, adverse events (safety analysis set, NCI-CTCAE v4.03, MedDRA)
[1] = Grade Any, N = 296 EV, 291 chemotherapy
[2] = Grade ≥3, N = 296 EV, 291 chemotherapy
[3] = MedDRA v23.0, N = 296 EV, 291 chemotherapy
[4] = No baseline PN, n = 241 EV, 233 chemotherapy
[5] = PY = 132.3 EV, 96.1 chemotherapy
[6] = any event, N = 296 EV, 291 chemotherapy

Excerpt: The Safety Analysis Set (SAF) will be used for the safety analysis. All subjects who are randomized and received study drug will be included in the SAF. The frequency of AEs and the serious AEs will be summarized by MedDRA system organ class and preferred term. In addition, summary statistics will be provided for the following safety parameters: • Laboratory values • Vital sign measurements • ECOG PS
An AE is any untoward medical occurrence in a subject, temporally associated with the use of a medicinal product, whether or not considered related to the medicinal product. An AE can therefore be any unfavorable and unintended sign (including an abnormal laboratory finding), symptom, or disease (new or exacerbated) temporally associated with the use of a medicinal product.
AEs, including abnormal clinical laboratory values, will be graded using the NCI-CTCAE guidelines (Version 4.03).
The safety analysis set (SAF), which consists of all subjects who received any amount of study drug, will be used for safety analyses.
SAF was used to perform all safety analysis. All treated subjects were analyzed according to the treatment they received.
The number and percentage of AEs by severity were also summarized. All AEs were listed.
A study drug-related TEAE is defined as any TEAE with a causal relationship of YES by the investigator. AEs of interest as classified by customized MedDRA queries and/or standard MedDRA queries were also summarized.

## enfortumab vedotin
[1]
  TRAE of special interest: Infusion-related reactions, %: 8.8%
  TRAE of special interest: Infusion-related reactions, Local events, %: 1.0%
  TRAE of special interest: Infusion-related reactions, Systemic events, %: 7.8%
  TRAE of special interest: Ocular disorders, %: 18.6%
  TRAE of special interest: Peripheral neuropathy, %: 46.3%
  TRAE of special interest: Peripheral neuropathy, Motor events, %: 7.4%
  TRAE of special interest: Peripheral neuropathy, Sensory events, %: 43.9%
  TRAE of special interest: Rash, %: 43.9%
  TRAE of special interest: Severe cutaneous adverse reaction, %: 20.3%
  TRAE of special interest: Skin reactions, %: 47.0%
[2]
  TRAE: Alopecia, Number of patients: 0
  TRAE: Anemia, Number of patients: 8
  TRAE: Anemia, percent: (2.7) percent
  TRAE: Any adverse event, Number of patients: 152
  TRAE: Any adverse event, percent: (51.4) percent
  TRAE: Decreased appetite, Number of patients: 9
  TRAE: Decreased appetite, percent: (3.0) percent
  TRAE: Decreased neutrophil count, Number of patients: 18
  TRAE: Decreased neutrophil count, percent: (6.1) percent
  TRAE: Decreased white-cell count, Number of patients: 4
  TRAE: Decreased white-cell count, percent: (1.4) percent
  TRAE: Diarrhea, Number of patients: 10
  TRAE: Diarrhea, percent: (3.4) percent
  TRAE: Dysgeusia, Number of patients: 0
  TRAE: Fatigue, Number of patients: 19
  TRAE: Fatigue, percent: (6.4) percent
  TRAE: Febrile neutropenia, Number of patients: 2
  TRAE: Febrile neutropenia, percent: (0.7) percent
  TRAE: Maculopapular rash, Number of patients: 22
  TRAE: Maculopapular rash, percent: (7.4) percent
  TRAE: Nausea, Number of patients: 3
  TRAE: Nausea, percent: (1.0) percent
  TRAE: Neutropenia, Number of patients: 14
  TRAE: Neutropenia, percent: (4.7) percent
  TRAE: Peripheral sensory neuropathy, Number of patients: 9
  TRAE: Peripheral sensory neuropathy, percent: (3.0) percent
  TRAE: Pruritus, Number of patients: 4
  TRAE: Pruritus, percent: (1.4) percent
[3]
  TEAE with special safety interest: Any corneal disorders (SMQ), %: (1.0%)
  TEAE with special safety interest: Any hyperglycemia (SSQ/CMQ), %: (11.8%)
  TEAE with special safety interest: Any infusion related reactions (SSQ/CMQ), %: (9.1%)
  TEAE with special safety interest: Any peripheral neuropathy (SMQ), %: (50.3%)
  TEAE with special safety interest: Any rashes or severe cutaneous adverse reactions, %: (53.7%)
[4]
  Treatment-emergent Hyperglycemia, %: (5.8) %
  Treatment-emergent Peripheral motor neuropathy, %: (9.1) %
  Treatment-emergent Peripheral neuropathy, %: (50.6) %
  Treatment-emergent Peripheral sensory neuropathy, %: (48.5) %
PADCEV arm
  most frequent Grade 3 or greater adverse event(s): rash, hyperglycemia, decreased neutrophil count, fatigue, anemia and decreased appetite, share of patients: more than 5%
[5]
  Grade ≥3 severity TEAE, E (number of events): 617
  Grade ≥3 severity TEAE, E/PY: (4.7) E/PY
  Grade ≥3 severity TRAE, E (number of events): 320
  Grade ≥3 severity TRAE, E/PY: (2.4) E/PY
  Overall TEAE, E (number of events): 5051
  Overall TRAE, E (number of events): 3033
  Serious TEAE, E (number of events): 314
  Serious TRAE, E (number of events): 114
  TEAE Leading to death, E (number of events): 21
  TEAE Leading to death, E/PY: (0.2) E/PY
  TEAE Leading to death, excluding disease progression, E (number of events): 11
  TEAE Leading to death, excluding disease progression, E/PY: (0.1) E/PY
  TEAE Leading to dose interruption, E (number of events): 536
  TEAE Leading to dose interruption, E/PY: (4.1) E/PY
  TEAE Leading to dose reduction, E (number of events): 170
  TEAE Leading to dose reduction, E/PY: (1.3) E/PY
  TEAE Leading to treatment withdrawal, E (number of events): 66
  TEAE Leading to treatment withdrawal, E/PY: (0.5) E/PY
  TRAE Leading to death, E (number of events): 7
  TRAE Leading to death, E/PY: (0.1) E/PY
  TRAE Leading to death, excluding disease progression, E (number of events): 7
  TRAE Leading to death, excluding disease progression, E/PY: (0.1) E/PY
  TRAE Leading to dose interruption, E (number of events): 384
  TRAE Leading to dose interruption, E/PY: (2.9) E/PY
  TRAE Leading to dose reduction, E (number of events): 165
  TRAE Leading to dose reduction, E/PY: (1.2) E/PY
  TRAE Leading to treatment withdrawal, E (number of events): 51
  TRAE Leading to treatment withdrawal, E/PY: (0.4) E/PY
[6]
  TRAE Leading to dose interruption, %: (51.0) %
  TRAE Leading to dose reduction, %: (32.4) %
  TRAE Leading to dose withdrawal, %: (13.5) %
In vivo
  Adverse events, regardless of relationship to treatment, that resulted in death (excluding disease progression) during the treatment period: 11 patients
  Investigator-assessed treatment-related adverse events that resulted in death: 7 patients
  Investigator-assessed treatment-related adverse events that resulted in death, %: 2.4%
  Skin reactions and peripheral neuropathy among treatment-related adverse events of special interest: most frequent
  Treatment-related adverse events of grade 3 or higher, rate after adjustment for treatment exposure: 2.4 events per patient-year
  time to first onset of grade ≥2 peripheral neuropathy, median (range): 4.435 (0.36, 12.02) months
  treatment-related death: abnormal hepatic function: 1 patient
  treatment-related death: hyperglycemia: 1 patient
  treatment-related death: multiorgan dysfunction syndrome: 2 patients
  treatment-related death: pelvic abscess: 1 patient
  treatment-related death: pneumonia: 1 patient
  treatment-related death: septic shock: 1 patient
Patients with the event
  Time to Onset of TRAE of special interest: Blurred vision, Median (range): 2.448 months
  Time to Onset of TRAE of special interest: Corneal disorders, Median (range): 4.337 months
  Time to Onset of TRAE of special interest: Dry eye, Median (range): 1.906 months
  Time to Onset of TRAE of special interest: Hyperglycemia, Median (range): 0.559 months
  Time to Onset of TRAE of special interest: Infusion-related reactions, Median (range): 0.509 months
  Time to Onset of TRAE of special interest: Peripheral neuropathy, Median (range): 2.694 months
  Time to Onset of TRAE of special interest: Skin reactions, Median (range): 0.427 months
Safety population
  incidence of treatment-related adverse events: 93.9%
